Our source for the stoichiometry N values is doi:10.1101/2024.01.10.575067.

The assay addresses tetra-Cys human GAPDH (TC-hGAPDH), bacterially expressed and purified (human) (UniProt P04406). As to the kind of experiment: SEC.

In turn, “tetra-Cys human GAPDH (TC-hGAPDH), bacterially expressed and purified (from UniProt P04406 1-335) (enzyme)” returned a stoichiometry N of 4.

As a reminder, the stoichiometry N is a count of units in the complex or per binding partner.
